Tested on: FLI1-CTD K4bR
Experiment: EMSA
Conditions: non-acetylated baseline; normalized to Coomassie; Non-radioactive EMSA: 1 ug protein, 500 fmol biotinylated dsDNA, binding buffer per Uren et al. 2004 (not given); 6% gel in 0.5x TBE; protein stock 20 mM …

Substance “ets-binding site oligonucleotide (wild type)” has a binding signal (fold vs non-acetylated wild type) of 1.

From publication PMC3435532
